Bridge positions count the residues as written; N and C are the ends. Ends that are not written are not given here. Peptide text beside a SMILES is read from it. I, II: the chains in the order shown.
B1: [[Cys^9]N/OFQ-NH2]2 (peptide)
peptide: FGGFTGARCSARKLANQ-NH2
modifications: also: homodimer: Cys9-Cys9 disulfide to second copy
B2: [[Cys^15]N/OFQ-NH2]2 (peptide)
peptide: FGGFTGARKSARKLCNQ-NH2
modifications: also: homodimer: Cys15-Cys15 disulfide to second copy
B3: [[Cys^8]N/OFQ-NH2]2 (peptide)
peptide: FGGFTGACKSARKLANQ-NH2
modifications: also: homodimer: Cys8-Cys8 disulfide to second copy
B4: [[Cys^16]N/OFQ-NH2]2 (peptide)
peptide: FGGFTGARKSARKLACQ-NH2
modifications: also: homodimer: Cys16-Cys16 disulfide to second copy
B5: [[Cys^12]N/OFQ-NH2]2 (peptide)
peptide: FGGFTGARKSACKLANQ-NH2
modifications: also: homodimer: Cys12-Cys12 disulfide to second copy
B6: [[Cys^10]N/OFQ-NH2]2 (peptide)
peptide: FGGFTGARKCARKLANQ-NH2
modifications: also: homodimer: Cys10-Cys10 disulfide to second copy
B7: [[Cys^7]N/OFQ-NH2]2 (peptide)
peptide: FGGFTGCRKSARKLANQ-NH2
modifications: also: homodimer: Cys7-Cys7 disulfide to second copy
B8: [[Cys^13]N/OFQ-NH2]2 (peptide)
peptide: FGGFTGARKSARCLANQ-NH2
modifications: also: homodimer: Cys13-Cys13 disulfide to second copy

Columns and labels:
[1] = molecular target: T1, human NOP (Homo sapiens, UniProt P41146); assay: NOP receptor–G protein interaction BRET assay; assay type: biochemical; set-up: expressed in transfected cells; host or cells: membranes of HEK293 cells stably coexpressing NOP-RLuc and Gβ1-RGFP; settings: N = 5 experiments in duplicate; for NOP–G protein interaction E max ± sem: effects normalized to N/OFQ-NH2 (E max = 1), mean ± sem; for EC50: membranes from HEK293 cells coexpressing NOP-RLuc and Gβ1-RGFP, room temperature, mean (CL95%), read-out: NOP–G protein interaction pEC50 (CL95%) (converted)
T1 sequence (P41146 whole entry): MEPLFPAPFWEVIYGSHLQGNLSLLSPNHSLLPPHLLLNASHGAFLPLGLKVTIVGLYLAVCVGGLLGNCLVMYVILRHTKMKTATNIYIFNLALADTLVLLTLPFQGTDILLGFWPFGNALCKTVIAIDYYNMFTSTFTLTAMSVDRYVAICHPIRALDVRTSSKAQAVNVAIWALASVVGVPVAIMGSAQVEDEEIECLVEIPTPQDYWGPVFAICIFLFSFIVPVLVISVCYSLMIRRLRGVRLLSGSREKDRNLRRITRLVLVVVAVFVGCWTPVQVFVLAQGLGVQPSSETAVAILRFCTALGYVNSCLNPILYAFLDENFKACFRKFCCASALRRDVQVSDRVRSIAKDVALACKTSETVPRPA
Method: A BRET interaction assay was used, as previously detailed in ref , to study the propensity of ligands to evoke interaction between the NOP receptor and to G protein. Membranes taken from HEK293 cells stably coexpressing the fusoproteins NOP-RLuc and Gβ1-RGFP were used. Such cells were grown in DMEM medium supplemented with 10% FBS, 2 mM L-glutamine, […] G418, […] hygromycin B, 100 IU/mL penicillin, and 100 IU/mL streptomycin in a humidified atmosphere with 5% CO2 at 37 °C. Cell membranes were thawed and resuspended in PBS supplemented with 0.01% BSA before the assay, and an amount of 3 μg of total protein was dispensed in each of the 96 wells together with 2 μM Prolume Purple Coelenterazine. All experiments were carried out at room temperature. Ligands were added, and averaged BRET ratios from 10 min measurements were computed. BRET ratios were computed as counts per second (CPS) obtained on a Victor Nivo (PerkinElmer) with 405 (10) nm and 510 (30) nm bandpass filters. Vehicles’ BRET ratios were derived from light passed through 510 divided by that passed through 405 filters. Vehicles BRET values were subtracted from all computations, and data sets were normalized as a fraction of N/OFQ maximal effects.
(§1) Concentration-response curves to agonists were analyzed by a four-parameter logistic nonlinear regression model: Effect = baseline + (E max – baseline)/(1 + 10^((logEC50–log[ligand])slope)). […] Experimental data were expressed as mean ± sem of at least 5 experiments. Potency values were expressed as the mean and CL95%. In vitro E max values were analyzed by one-way ANOVA, while in vivo latency data were evaluated by one-way ANOVA followed by Dunnett’s post hoc test. The proportion of mice losing the righting reflex was compared by Fisher’s exact test performed on raw data. GraphPad Prism 10.0 software was used for all of the analyses. The terminology employed is consistent with the International Union of Basic and Clinical Pharmacology (IUPHAR) recommendations. ,

[2] = molecular target: T1, human NOP; assay: Calcium mobilization assay, CHO cells with NOP receptor and chimeric G protein; assay type: cell-based; set-up: expressed in transfected cells; settings: for EC50: CHO cells coexpressing human NOP and Gαqi5, Fluo-4, 37 °C, mean (CL95%), N = 5 experiments in duplicate, read-out: Ca^2+ mobilization pEC50 (CL95%) (converted); for Ca^2+ mobilization E max ± sem: CHO cells coexpressing human NOP and Gαqi5, maximum change in percentage over baseline fluorescence, mean ± sem, N = 5 in duplicate
Method: Chinese hamster ovary (CHO) cells stably coexpressing the human NOP, μ, or κ opioid receptors and the Gαqi5 protein or the human δ and the GαqG66Di5 protein were used in this assay. , Cells were cultured in DMEM/F-12 (1:1) medium supplemented with 10% FBS, 2 mM L-glutamine, […], 100 IU/mL penicillin, and 100 IU/mL streptomycin. Cells were maintained at 37 °C in a humidified atmosphere with 5% CO2 and were seeded at 50 000 cells/well into 96-well black, clear-bottom plates 24 h before test. Loading for 45 min with a solution consisting of HBSS supplemented with 2.5 mM probenecid, 3 μM Fluo-4 AM, and 0.01% pluronic acid ensures the calcium-sensitive dye (Fluo-4) reaches the needed concentration inside the cell, while the exchange of the solution with 100 μL/well of buffer consisting of HBSS with 20 mM HEPES, 2.5 mM probenecid, and 500 μM Brilliant Black allows for fluorescence background to decrease. Serial dilutions of ligands were prepared in HBSS buffer with 20 mM HEPES and 0.02% bovine serum albumin (BSA) to minimize the ligands’ stickiness to plasticware. The automated microplate reader FlexStation II (Molecular Devices, CA, US) was employed at 37 °C to detect changes in fluorescence intensity. The effects of all compounds were expressed as the maximum change in percentage over the baseline fluorescence measured in samples treated with vehicles.
as §1

[3] = molecular target: NOP-RLuc (UniProt P41146); settings: for E max, NOP–G protein interaction (BRET), normalised to N/OFQ-NH2 (E max = 1): scale: fraction of the maximal effect of N/OFQ-NH2
Chain of NOP-RLuc (P41146 whole entry): as above

[4] = molecular target: human nociceptin/orphanin FQ (N/OFQ) peptide receptor (human) (UniProt P41146)
Chain of human nociceptin/orphanin FQ (N/OFQ) peptide receptor (human) (P41146 whole entry): as above

| Molecule | NOP–G protein interaction E max ± sem [1] | EC50 [1] [nM] | EC50 [2] [nM] | Ca^2+ mobilization E max ± sem [2] [% over the baseline] | pEC50, NOP–G protein interaction (BRET, membranes of HEK293 cells with NOP-RLuc and Gβ1-RGFP) [3] [pEC50] | E max, NOP–G protein interaction (BRET), normalised to N/OFQ-NH2 (E max = 1) [3] | E max, Ca^2+ mobilization in CHO cells with human NOP and Gαqi5 (% over baseline) [4] | pEC50, Ca^2+ mobilization in CHO cells with human NOP and Gαqi5 [4] [pEC50] |
| --- | --- | --- | --- | --- | --- | --- | --- | --- |
| CC(C)C[C@H](NC(=O)[C@H](CCCCN)NC(=O)[C@H](CCCNC(=N)N)NC(=O)[C@H](C)NC(=O)[C@H](CO)NC(=O)[C@H](CCCCN)NC(=O)[C@H](CCCNC(=N)N)NC(=O)[C@H](CSSC[C@H](NC(=O)CNC(=O)[C@@H](NC(=O)[C@H](Cc1ccccc1)NC(=O)CNC(=O)CNC(=O)[C@@H](N)Cc1ccccc1)[C@@H](C)O)C(=O)N[C@@H](CCCNC(=N)N)C(=O)N[C@@H](CCCCN)C(=O)N[C@@H](CO)C(=O)N[C@@H](C)C(=O)N[C@@H](CCCNC(=N)N)C(=O)N[C@@H](CCCCN)C(=O)N[C@@H](CC(C)C)C(=O)N[C@@H](C)C(=O)N[C@@H](CC(N)=O)C(=O)N[C@@H](CCC(N)=O)C(N)=O)NC(=O)CNC(=O)[C@@H](NC(=O)[C@H](Cc1ccccc1)NC(=O)CNC(=O)CNC(=O)[C@@H](N)Cc1ccccc1)[C@@H](C)O)C(=O)N[C@@H](C)C(=O)N[C@@H](CC(N)=O)C(=O)N[C@@H](CCC(N)=O)C(N)=O [1a, [[Cys^7]N/OFQ-NH2]2] (I: H-FGGFTGCRKSARKLANQ-NH2 / II: H-FGGFTGCRKSARKLANQ-NH2; disulfide I:7-II:7) | 1.09 ± 0.09 | 1.95 | 26.9 | 293 ± 18 |  |  |  |  |
| CC(C)C[C@H](NC(=O)[C@H](CCCCN)NC(=O)[C@H](CSSC[C@H](NC(=O)[C@H](C)NC(=O)[C@H](CO)NC(=O)[C@H](CCCCN)NC(=O)[C@H](CCCNC(=N)N)NC(=O)[C@H](C)NC(=O)CNC(=O)[C@@H](NC(=O)[C@H](Cc1ccccc1)NC(=O)CNC(=O)CNC(=O)[C@@H](N)Cc1ccccc1)[C@@H](C)O)C(=O)N[C@@H](CCCCN)C(=O)N[C@@H](CC(C)C)C(=O)N[C@@H](C)C(=O)N[C@@H](CC(N)=O)C(=O)N[C@@H](CCC(N)=O)C(N)=O)NC(=O)[C@H](C)NC(=O)[C@H](CO)NC(=O)[C@H](CCCCN)NC(=O)[C@H](CCCNC(=N)N)NC(=O)[C@H](C)NC(=O)CNC(=O)[C@@H](NC(=O)[C@H](Cc1ccccc1)NC(=O)CNC(=O)CNC(=O)[C@@H](N)Cc1ccccc1)[C@@H](C)O)C(=O)N[C@@H](C)C(=O)N[C@@H](CC(N)=O)C(=O)N[C@@H](CCC(N)=O)C(N)=O [1f, [[Cys^12]N/OFQ-NH2]2] (I: H-FGGFTGARKSACKLANQ-NH2 / II: H-FGGFTGARKSACKLANQ-NH2; disulfide I:12-II:12) | 1.07 ± 0.12 | 1.26 | 3.02 | 346 ± 19 |  |  |  |  |
| CC(C)C[C@H](NC(=O)[C@H](CSSC[C@H](NC(=O)[C@H](CCCNC(=N)N)NC(=O)[C@H](C)NC(=O)[C@H](CO)NC(=O)[C@H](CCCCN)NC(=O)[C@H](CCCNC(=N)N)NC(=O)[C@H](C)NC(=O)CNC(=O)[C@@H](NC(=O)[C@H](Cc1ccccc1)NC(=O)CNC(=O)CNC(=O)[C@@H](N)Cc1ccccc1)[C@@H](C)O)C(=O)N[C@@H](CC(C)C)C(=O)N[C@@H](C)C(=O)N[C@@H](CC(N)=O)C(=O)N[C@@H](CCC(N)=O)C(N)=O)NC(=O)[C@H](CCCNC(=N)N)NC(=O)[C@H](C)NC(=O)[C@H](CO)NC(=O)[C@H](CCCCN)NC(=O)[C@H](CCCNC(=N)N)NC(=O)[C@H](C)NC(=O)CNC(=O)[C@@H](NC(=O)[C@H](Cc1ccccc1)NC(=O)CNC(=O)CNC(=O)[C@@H](N)Cc1ccccc1)[C@@H](C)O)C(=O)N[C@@H](C)C(=O)N[C@@H](CC(N)=O)C(=O)N[C@@H](CCC(N)=O)C(N)=O [1g, [[Cys^13]N/OFQ-NH2]2] (I: H-FGGFTGARKSARCLANQ-NH2 / II: H-FGGFTGARKSARCLANQ-NH2; disulfide I:13-II:13) |  | 0.302 | 1.62 | 247 ± 39 |  |  |  |  |
| B1 |  |  |  |  | 8.87 | 1.03 | 289 | 8.3 |
| B2 |  |  |  |  | 9.71 | 0.95 | 297 | 8.53 |
| B3 |  |  |  |  | 8.04 | 1.04 | 322 | 7.36 |
| B4 |  |  |  |  | 9.76 | 0.98 | 312 | 8.86 |
| B5 |  |  |  |  | 8.9 | 1.07 | 346 | 8.52 |
| B6 |  |  |  |  | 9.85 | 1.07 | 305 | 8.72 |
| B7 |  |  |  |  | 8.71 | 1.09 | 293 | 7.57 |
| B8 |  |  |  |  | 9.52 | 0.84 | 247 | 8.79 |
